For 1 sequence, binding results are on record in PMC10269683.

The series has as its target CcpA (Streptococcus pneumoniae D39) (UniProt A0A0H2ZQ65). Nature of the series: EMSA. To be noted: EMSA: 10 mM Tris-HCl pH 7.4, 1 mM DTT, 1 mM EDTA, 50 mM KCl, 5% glycerol, 50 ug/mL BSA, 0.05% NP-40, 20 min 37 C; footprinting binding 30 min 25 C.

Regarding “GCTACAAACTGTTCCAATTTAACTGTGTTTTTCATAATAAAATCTCCTAAAATGTTTTTTCTTGTAAGCTAACTTACAAAAACCATTATACAAAATGGAATTTCGTTTTAGATAAAATTCTCTCAACTGTCATTTTTTTCTCCCAAAGTGTACTTTTTTAAGAAAAAAGCCGGGAAAATTCCCAGCTTTGCTATTATATTGATCCCAGCAGGATTCGAACCTGCGACCGTTCGCTTAGAAGGCGAATGCTCTATC (double strand) [P240 (PcomCDE)]”, the binding result is “binds”.
